Test: soluble on expression in E. coli; label from the status in PepcDB or PDB records

| Sequence | soluble on expression in E. coli |
| --- | --- |
| SVMYEEDFVLNSRGMKLFTCVWKPVKQEPKALLFLCHGYAMESSITMNSAATRLANAGFAVYGMDYEGHGKSEGLNGYISNFDDLVDDVSNHYSTICEREENKGKMRFLLGESMGGAVVLLLARKKPDFWDGAVLVAPMCKLADEIKPHPVVISILIKLAKFIPTWKIVPGNDIIDIAIKEPHIRNQVRENKYCYKGRPRLNTAYQLLLVSLDLEKNLHQVSIPFIVLYGEDDKVTDKSISKMLYEVASSSDKTFKLYPKMWHALLYGETNENSEIVFGDIINWLEDRATDSNGGLESQLKHKHDGFLKHK | soluble |
| SVPLVAVVSGPRAQLFACLLRLGTQQVGPLQLHTGASHAARNHYEVLVLGGGSGGITMAARMKRKVGAENVAIVEPSERHFYQPIWTLVGAGAKQLSSSGRPTASVIPSGVEWIKARVTELNPDKNCIHTDDDEKISYRYLIIALGIQLDYEKIKGLPEGFAHPKIGSNYSVKTVEKTWKALQDFKEGNAIFTFPNTPVKCAGAPQKIMYLSEAYFRKTGKRSKANIIFNTSLGAIFGVKKYADALQEIIQERNLTVNYKKNLIEVRADKQEAVFENLDKPGETQVISYEMLHVTPPMSPPDVLKTSPVADAAGWVDVDKETLQHRRYPNVFGIGDCTNLPTSKTAAAVAAQSGILDRTISVIMKNQTPTKKYDGYTSCPLVTGYNRVILAEFDYKAEPLETFPFDQSKERLSMYLMKADLMPFLYWNMMLRGYWGGPAFLRKLFHLGMS | soluble |
| SVPQISQPHFLLDGLSSQPLFNDIAAGIPSITAYSKNGLKIEFTFERSNTNPSVTVITIQASNSTELDMTDFVFQAAVPKTFQLQLLSPSSSIVPAFNTGTITQVIKVLNPQKQQLRMRIKLTYNHKGSAMQDLAEVNNFPPQSWQ | soluble |
| SYHPLLSSSAKASADGFKPLPAIELLDRASESPTTVEIAATTTSDSCSDGARSRFQRLKVVLDLDETLVCAYETSSLPAALRNQAIEAGLKWFELECLSTDKEYDGKPKINYVTVFERPGLHEFLEQLSEFADLILFTAGLEGYARPLVDRIDTRKVLTNRLYRPSTVSTQYRDHVKDLLSTSKNMCRTVIVDNNPFSFLLQPSNGIPCIAFSAGQPNDTQLLDVILPLLKQLSEEDDVRPTLYDRFRMPEWFEKQGIPPSCWKP | soluble |
| TDPDADRLGAAVRMPNGDYQVLTGNQLGSIMIHYILEAHQQAGTLPQNAAVLKSIVSSELATAIAEKCNTKMFNVLTGFKFIAEKIQQYEEDHSQTFMFGFEESYGYLVKPFVRDKDAIQALVLLAEVAAFYKKQGKTLYDGLQDIFEEFGYFEE | not soluble |
| TDPDCDRIGVLVKNKSGEYKVLTGNQTGVLLTHYIISSLKDTGKLPANGAVIKTIVTSEMTRKITEDYDMKLIDVLTGFKYIGEKIKEFEETNSNTYLFGFEESYGCLAGTFVRDKDAVVAATLVCEMALYYKNKGLSLDDALNELYEKYGF | not soluble |
| TDTDEVINLRVVETTDIHTNLMDYDYYKDKPTQKIGLARTATLVKEARAEVTNSVLVDNGDLLQGSPMGDYMADKGIEAGEVHPAYKAMNQLDYDAGNIGNHEFNYGLEFLAESINDADFPYISANVYDAKTKEHYFKPYIIKTHKLKDTAGVEHEIKVGYIGFVPPQIMVWDKKNLEGKVFARDIKETAEELVPQMKAEGADVIVAIPHSGVSTNPYKQGEENSTYYLSEVDGIDAIAFGHSHAVFPGKGFDNLQGIDNENGTINGVAAVMPGRWGSHVGVMDLTLEQKDGKWSVVKGQSEARPIFDKTNQKSLADADKGIVQALEADHKGTRDFVNQ | not soluble |
| TESGTAAQDPEALAAEIGPVKQVSLGEQIDAALAQQGEQLFNTYCTACHRLDERFIGPALRDVTKRRGPVYIMNVMLNPNGMIQRHPVMKQLVQEYGTMMTDMALSEEQARAILEYLRQVAENQ | soluble |
| TFRLVIACPDGVGIVAKVSNFLATYNGWITEASHHSDNDNGWFFMRHEIRADSLPFDLDGFRQAFAPIAREFSMEWRITDSEVKKRVVLMASKESHCLADLLHRWHSGELDCEIPCVIANHDDLRSMVEWHGIPYFHVPVDPQDKQPAFDEVSRLIDEHGADCIVLARYMQILPPDLCRKYAHQVINIHHSFLPSFIGAKPYHQASKRGVKLIGATSHYVTEELDAGPIIEQDVVRVTHRDNVEDMVRLGKDVEKLVLARGLRYHLEDRVLVH | not soluble |
| TGKVHWSDELFNIFGRDPQKSAANYEELLNYIHPDDRDFVDGIIRNSFTGKRYGIDYRIIRDNGEERTVHAEKELIFDRN | not soluble |
| THILTLTSGFHLWSHTENSGKKSKIIAVHGGPGETHESFETLPLGVPNAEITSYDQLGSWYSDQPDFSDPKLAKKYLRIEYFVNELEEVRRQLEYDKFILLGYSWGAMIALEYALKYPGNLDKLVIVGMSDRESDFTDRMKDEVAKVLSKDEAKYVFTEAKKGELDDPLFNQFMEKFYNDYYSRFSKSQSKHAIDISNYQVANYMMGTNPFHTEGMMSGWNVSDKLYRIKTPTLILVGDQDMISPKKARVMADKLPNGKLEIIPDATHVSLRDNPEYFFQQLNQFLTN | not soluble |
| TIDEINKAISSSLSRERIMETAMAQVERITGCEFVAILQAENGGLKVMSSHASGLEIPAALRPGAPLSLAGCTAWTAFRTGRSASIADLADTRKPGTVSRTLLAAGIRSLLAIPLMSRDQVKGVLLLGDTEPDKFARGETFTIEKIASQMAVALENARLYEDMR | not soluble |
| TIEIYKNKIPDGKNAGKDAILIKDNNLIKQLEDAAKKNGAESNQKQGGESNVQKEQIIGYTTTGNVREDGNHIFRVDKINDEQYDRKIIVGVTVETLEQSSTLQSEEAIVLAAPGKYKSTDKKKVTITQGPNIIGIHANEKENAETQKFVDW | soluble |
| TKDFSWNSDFIFSHAKNEVTDLRGRTRMMELVSGNGFAREGYPVRGLFSIPFAGLDEKGIPMFDINGNITSTDINFQEREKLDYLKYEGPTDPTITGSFGNVFAYKGFKLNVFMTYSFGNVVRLNPYFNYKYSDLSAMPREFKNRWTLSGDEAKTNIPAILSNPQYEANRTLYKAYNAYNYSTERIAKGDFIRMKEISLSYEFPKSWISAAKISNLSLKLQATNLFLIYADKKLNGQDPEFFNTGGVASPVPRQFTLTLRLGL | not soluble |
| TKLSPELLVKLGSEGVLAGVKDSSGDDVSFRRLVMLNKKAGSPLTLLTGHEAVVDGAFIAGADGCVPGLGNVDPAGYVRMWKAAEAGDWATVQKEQDRLAALFEIVFQPIGKVGPAAGVGSFKTALE | not soluble |
| TLKEMKYKRNQEEIETYYEYTLKIEAINNEMRKFRHDYVNILTTLSEYIREDDMIGLRAYFNKNIVPMKDNLQMNAIKLNGIENLKVREIKGLITAKILRAQEMNIPISIEIPDEVSSINLNMIDLSRSIGIILDNAIEASTEIDDPIIRVAFIESENSVTFIVMNKCADDIPRIHELFQESFSTKGEGRGLGLSTLKEIADNADNVLLDTIIENGFFIQKVEIINN | not soluble |
| TPGKSDEAKDVFQVQDIPPVTAIGQSGLRLNLIGKNDRILNVNSPVLYENFMVGQVESAHFDPSDQSVHYTIFIQSPNDKLIHSASRFWLESGINIETTGSGIKLNSAPLPALLSGAISFDSPKTKNSKNVKSEDSFTLYDSRSEVANLPDDRSLYYTAFFKQSVRGLTVGSPVEYKGLNVGVVSDVPYFDRNDSLHLFENGWIPVRIRIEPSRLEINADEQSKEHWKQQFQTALNKGLTATISSNNLLTGSKMIELNDQPSASPKLRPHTVYAGDTVIATQGGGLDDLQVKLADLLDKFDKLPLDKTVAELNGSLAELKSTLKSANAALSSIDKLVGKPQTQNIPNELNQTLKELRTTLQGVSPQSPIYGDVQNTLQSLDKTLKDVQPVINTLKEKPNALIFNSSSKDPIPKGSR | not soluble |
| TQKPSLYRVLILNDDYTPMEFVVYVLERFFNKSREDATRIMLHVHQNGVGVCGVYTYEVAETKVAQVIDSARRHQHPLQCTMEKD | soluble |
| TRGHGLFRITLVERDGPVGAGIAYATREAEHLLNTRVHNMSAFPDRPDHFRQWLAAEPEGRFSTGDSFVPRGLYRRYLEEILAPWRAGAQLTCVGGECLRIEEVGRGVIAHFSDGSVRLADVAILATGHPRPDPAEDRLLQDPWRAADVPPDARVVLLGSGLTMIDKVLTLLANGHRGEI | not soluble |
| TSDTPALLYIHGLNSSAQSKKACQLIALMKSLGLADRLQVPELHHHPRQAMLQLESAIGALGRPLLVGSSLGGYYATHLAQRHGLKAVLINPAVNPHQLFDGFLGMQQNLYTGEQWQLTEDHIKALAELEVPAPQDPQQFQVWLQTGDETLDYRRAEKFYRACALRIQAGGDHSFQGFAERLPALLSFAGFAPDLLQ | not soluble |
| TSMIIHRDLEVAIRQDNIIPYFQPIVNAKSGEIIGFEALARWPHPTLGIISPLIFIPLAEQGKLIVELGESILNQSCDFIGKLNTKRHSQGLPPLTVHVNLSAQHFYHSRLISFLQSMIEEHNISAGHLVLEITESMLMGGETESIHCINEIKQLGVQLALDDFGTGYASFSSVCNFPLDIVKLDKSYVDEIETNDRAKTLVRNIANMSQELGLTIVAEGVETASQVRKLKVWNIDELQGFYFYKPMTREDAFAQFSGLPHC | not soluble |
| TTAIASDRLKKRFDRWDFDGNGALERADFEKEAQHIAEAFGKDAGAAEVQTLKNAFGGLFDYLAKEAGVGSDGSLTEEQFIRVTENLIFEQGEASFNRVLGPVVKGIVGMCDKNADGQINADEFAAWLTALGMSKAEAAEAFNQVDTNGNGELSLDELLTAVRDFHFGRLDVELLG | soluble |
| TVSQLRSRITRFALAGRGMRETVTWSFISEKQALAFGGGQAQLKLVNPISADMSVMRPSLLPGLLVAAQRNADRGFPDFALFEVSNIYEDDTPDKQHRVAGGIRRGTEQFGGAGRFWNGNARAVDVFDAKADALAVLEACGLESGKVQIEVGAPDWYHPGRSGVIKLGSKIILGFFGVFHPATLEKLDISGPLCGFEIFL | not soluble |
| TVVNDPSCESVVTTPQHSLRDANSPAGLLSIAEETLAEFLSKATGTAVDWVQMPGMKPGPDSVGIFAISQRCNGVAARACGLVSLEPMKIAEILKDRPSWFRDCRSLEVFTMFPAGNGGTIELVYMQTYAPTTLAPARDFWTLRYTTSLDNGSFVVCERSLSGSGAGPNAASASQFVRAEMLSSGYLIRPCDGGGSIIHIVDHLNLEAWSVPDVLRPLYESSKVVAQKMTISALRYIRQLAQESNGEVVYGLGRQPAVLRTFSQRLSRGFNDAVNGFGDDGWSTMHCDGAEDIIVAINSTKHLTNISNSV | soluble |
| VAIDTVITDMDGTLLVKKGDQIHPLNKEVLINWQADGKKLFLATGRLDLAILPFIHELNIKTPVISCNGGLVRDFTTGEILYKSNIELDLVHTVLETLEPLGVNYHIYTTERIIGPTNTGKIAFFNELNKTLSENEQVPITLTTDPFSVLREGEFPLKVLVIESDLEKRAEIKAALQGLPLSVLASASNLIDIMNEGIDKAKGLTYLADNGYINLNSTIAFGDNENDVGMIELAEIGVAMENGIPLALEKADKIAKHHDIGGLGLFMQEEIL | not soluble |
| VAIDYTRRPSSPAAPQGGVSLSKVTLSKAAPSVSLTKSGERQGAMRVNLNWSTGATPQPKKTGFFAKLAAAAGGNNGIDLDLGCLYELADGSKGVVQALGNSFGSLQAPPFIKLDADDRTGTVTGGENLHINLDRPEMFKRILIFAMIYDGAPNWAAVDGVVTLYPTSGPEVEVRLDTSNSSARICAIAMLQNTGQGITVTREVKYIEGSQADLDKTYSWGMKWAAGRK | not soluble |

Source: the DeepSol protein solubility set
